Numbered stars: 1 amine (or outer) side, 2 acyl side, 3 side chain; on linkers, the order of the positions; unused ones are H or OH. Bridge positions count the residues as written; N and C are the ends. Square brackets hold non-standard residues; d marks the D form. Ends that are not written are not given here. * marks the point of attachment. nonenoic acid = non-8-enoic acid residue (acyl cap with no amine) whose terminal alkene closes the ring by metathesis with the o-allyl-tyrosine, C=CCCCCCCC(=O)*; Tyr(3-All) = 3-allyl-tyrosine (allyl on ring carbon ortho to the phenol OH), C=CCc1cc(C[C@H](N[*:1])C(=O)[*:2])ccc1O[*:3]; OctenylA = alpha-methyl-octenylalanine = 2-(7-octenyl)alanine; 6‑(allylamino)hexanoyl = C=CCNCCCCCC(=O)*
T1: rat NTS2-YFP receptor (rat, UniProt Q63384 1-416)
T1 construct: whole, on cells; Used as cell membranes of transfected DRG-F11 cells; also called rNTS2-YFP; rNTS2
T1 sequence (Q63384 whole entry, looked up): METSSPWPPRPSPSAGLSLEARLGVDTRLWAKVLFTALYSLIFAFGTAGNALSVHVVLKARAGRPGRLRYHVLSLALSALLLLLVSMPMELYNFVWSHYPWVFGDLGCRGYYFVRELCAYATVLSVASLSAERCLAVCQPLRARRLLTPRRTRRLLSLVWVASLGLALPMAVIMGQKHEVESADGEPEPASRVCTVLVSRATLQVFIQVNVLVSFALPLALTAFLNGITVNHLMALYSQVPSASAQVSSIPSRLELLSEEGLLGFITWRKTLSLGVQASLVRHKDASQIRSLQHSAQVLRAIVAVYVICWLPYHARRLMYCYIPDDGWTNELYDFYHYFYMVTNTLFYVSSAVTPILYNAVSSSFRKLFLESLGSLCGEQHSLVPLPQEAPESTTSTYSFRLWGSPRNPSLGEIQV

B1: 1-M (or 1) c[nonenoic acid KPY(All)]IL (peptide)
peptide: {nonenoic acid}-KP[Tyr(3-All)]IL
modifications: staple (positions not given here); not fully specified (bridges)
notes: Macrocycle; E and Z isomers were not separated; also called compound 1
B2: 10 c[K(pentenyl)KPY(All)]IL (peptide)
peptide: XKPXIL
modifications: residue 1 is N-pentenyl-lysine; Tyr is o-allyl-tyrosine; the two joined by ring-closing metathesis; 25 ring atoms
notes: also called compound 10
B3: 9 c[K(butenyl)KPY(All)]IL (peptide)
peptide: XKPXIL
modifications: residue 1 is N-butenyl-lysine; Tyr is o-allyl-tyrosine; the two joined by ring-closing metathesis; 24 ring atoms
notes: also called compound 9
B4: 3 c[OctenylAKPY(All)]IL (peptide)
peptide: [OctenylA]KPXIL
modifications: staple 1-4; not fully specified (residue 4); printed as 3 c[OctenylAKPY(All)]IL
notes: Diastereoisomer of compound 12; also called compound 3

Assays:
hNTS1 receptor [1] = biological target: T2, hNTS1 receptor (human (printed as hNTS1), UniProt P30989 1-418); assay: competitive radioligand binding, 125I-[Tyr3]-NT, CHO-K1 membranes expressing hNTS1; Ki by Cheng-Prusoff
T2 construct: whole, on cells; also called neurotensin 1 (NTS1) receptor
T2 sequence (P30989 whole entry): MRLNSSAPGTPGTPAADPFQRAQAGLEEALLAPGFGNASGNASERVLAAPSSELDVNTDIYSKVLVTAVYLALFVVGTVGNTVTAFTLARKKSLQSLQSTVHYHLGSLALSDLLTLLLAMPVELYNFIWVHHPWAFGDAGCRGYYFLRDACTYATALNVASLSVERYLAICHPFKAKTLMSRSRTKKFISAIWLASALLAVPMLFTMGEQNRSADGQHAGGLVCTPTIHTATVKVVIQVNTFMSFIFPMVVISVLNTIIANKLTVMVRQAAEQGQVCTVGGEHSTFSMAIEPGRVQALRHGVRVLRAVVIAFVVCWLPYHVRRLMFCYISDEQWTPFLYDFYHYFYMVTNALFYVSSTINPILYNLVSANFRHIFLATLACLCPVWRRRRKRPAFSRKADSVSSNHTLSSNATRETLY

hNTS1 receptor [2] = biological target: T2, hNTS1 receptor; assay: cell-based or functional assay
[3] = biological target: hNTS1-Green fluorescent protein 10(GFP10) (human (printed as hNTS1), UniProt P30989 1-418); assay: cell-based or functional assay
Chain of hNTS1-Green fluorescent protein 10(GFP10) (P30989 whole entry): as above

hNTS1 receptor [4] = biological target: T2, hNTS1 receptor; assay: competitive radioligand binding, 125I-[Tyr3]-NT, CHO-K1 membranes expressing hNTS1
rat NTS2-YFP receptor [5] = biological target: T1, rat NTS2-YFP receptor; assay: displacement of radiolabeled neurotensin from rNTS2-YFP membranes by a single 1 µM dose
Protocol: (§1) DRG-F11 cells were cultured in DMEM supplemented with 10% FBS, 100 U/mL penicillin, 100 μg/mL streptomycin, and 20 mM HEPES. DRG-F11 were seeded at 2.2×10⁶ cells in a 10 cm Petri dish and transfected 24 h after plating with 10 μg of DNA coding for the rat NTS2-YFP receptor using Xtreme Gene™ HP as a transfection agent. Membrane preparation was conducted 48 h after transfection, as described below.
(§2) Transfected cells expressing the rNTS2-YFP receptor were used 48 h after transfection. Membranes were prepared by scraping cells off the culture dish with 50 mM Tris ph 7.5 and centrifuged at 15,000 g for 5 min at 4° C. The pellet was resuspended in 10 mM Tris, 1 mM EDTA pH 7.5 and sonicated for 30 s prior to be centrifugated at 15,000 g for 30 min at 4° C. The pellet was then re-suspended in binding 9 buffer. […] All other steps in binding experiments were unchanged comparing to the one using the NTS1 receptor.

rat NTS2-YFP receptor [6] = biological target: T1, rat NTS2-YFP receptor; assay: competitive radioligand binding, 125I-[Tyr3]-NT, DRG-F11 membranes expressing rNTS2-YFP
Protocol: as §1, §2

rat NTS2-YFP receptor [7] = biological target: rat NTS2-YFP receptor (rat, UniProt Q63384 1-416); assay: displacement of radiolabeled neurotensin from rNTS2-YFP membranes by a single 1 µM dose
Protocol: as §1, §2

Binder | Ki (hNTS1 receptor [1]) [nM] | EC50 β-arr1 [3] [nM] | % displ at 1 µM (rat NTS2-YFP receptor [5]) [%] | IC50 (rat NTS2-YFP receptor [6]) [nM] | also measured
B1 | 5600 | 1500 |  |  | EC50 G13 (hNTS1 receptor [2]): 433 nM; IC50 (hNTS1 receptor [4]): 394 nM
B2 |  |  | 105 | 128 | 
{6‑(allylamino)hexanoyl}-KP[Tyr(3-All)]IL (staple (positions not given here); not fully specified (bridges), also called compound 6) [6 c[aminohex-6-enoic acid(All)KPY(All)]IL] | 656 | 96 | 93 | 2300 | 
RRPYIL (also called neurotensin (8-13)) [NT 8-13 RRPYIL] |  |  |  |  | % displ at 1 µM (rat NTS2-YFP receptor [7]): 100%
B3 |  |  | 104 | 47.2 | 
B4 |  |  | 96 |  | 

Source: patent US20180362582A1 (SOCPRA SCIENCES SANT ET HUMAINES S E C, published 2018)
